Measured values taken from patent US20250326848A1.

Experiments:
[1] = molecular target: human CD47 on primary human red blood cells (human) (UniProt Q08722); assay: FACS, whole cell binding to primary human red blood cells, Donor1
[2] = molecular target: human CD47 on primary human platelets (human) (UniProt Q08722); assay: FACS, binding to primary human platelets, donor1
[3] = molecular target: human CD47 on primary human red blood cells (human) (UniProt Q08722); assay: FACS, whole cell binding to primary human red blood cells, Donor2
[4] = molecular target: human CD47 on Jurkat cells (human) (UniProt Q08722); assay: FACS, whole cell binding to Jurkat cells; middle panel 'Anti-CD47 whole cell binding to Jurkat', nM is from the axis 'Conc(nM)'
[5] = molecular target: human CD47 on primary human platelets (human) (UniProt Q08722); assay: FACS, binding to primary human platelets, donor 2
[6] = molecular target: human CD47 on Jurkat cells (human) (UniProt Q08722); assay: FACS, whole cell binding to Jurkat cells; bottom panel 'Anti-CD47 Binding to CD47+ cells', nM is from the axis 'Conc. (nM)'
[7] = molecular target: human PDL1 expressed on CHO cells (human) (UniProt Q9NZQ7)
[8] = molecular target: human CD47 on Jurkat cells (human) (UniProt Q08722); assay: FACS, whole cell binding to Jurkat cells; bottom panel 'Anti-CD47 Binding to CD47+ cells'; fit value printed for the control curve; nM is from the axis
[9] = molecular target: human CD47 on Jurkat cells (human) (UniProt Q08722); assay: FACS, whole cell binding to Jurkat cells; middle panel 'Anti-CD47 whole cell binding to Jurkat'; fit value given for a flat control curve; nM is from the axis
[10] = molecular target: human CD47 on Jurkat cells (human) (UniProt Q08722); assay: FACS, whole cell binding to Jurkat cells; top panel 'HLX305 Binding to CD47+ Jurkat Cells'; fit value given for a flat control curve; nM is from the axis

human PDL1 expressed on CHO cells (human), sequence (Q9NZQ7 19-290 limits assumed): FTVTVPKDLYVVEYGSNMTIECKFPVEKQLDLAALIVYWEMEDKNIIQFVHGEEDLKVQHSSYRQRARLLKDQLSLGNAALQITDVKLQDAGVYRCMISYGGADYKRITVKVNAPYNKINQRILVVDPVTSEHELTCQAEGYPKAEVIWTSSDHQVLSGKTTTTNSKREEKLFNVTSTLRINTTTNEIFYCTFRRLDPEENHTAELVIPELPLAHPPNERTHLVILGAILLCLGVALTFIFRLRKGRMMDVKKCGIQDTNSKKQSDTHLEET

Substance: IBI322 analog (anti-PDL1/CD47 antibody of US 20220227870 A1, synthesized in-house) (bispecific antibody)
- EC50 (read off the curve) [1]: 2 nM
- EC50 (read off the curve) [2]: 1 nM
- EC50 (read off the curve) [3]: 2 nM
- EC50 [4]: 0.682 nM
- EC50 (read off the curve) [5]: 0.8 nM

Substance: PF-07257876 analog (anti-PDL1/CD47 antibody of US 20210179716 A1, synthesized in-house) (bispecific antibody)
- EC50 [6]: 8.29 nM

Substance: Reference Ab 1 (analog of MPDL3280A, synthesized in-house from WO2016007235A1) (antibody)
- EC50; whole cell PDL1/PD1 blocking assay, NFAT luciferase reporter (RLU) [7]: 0.0532 nM

Substance: IgG isotype antibody (negative control)
- EC50 [8]: 50 nM
- EC50 [9]: 0.00976 nM
- EC50 [10]: 6.73 nM
